Measurements published in paper doi:10.1101/2022.08.23.504973 (bioRxiv, 2022).

Biological target: KEAP1 (Kelch-like ECH-associated protein 1), recombinant (UniProt Q14145 1-624)
Assay: SPR

Chain of KEAP1 (Kelch-like ECH-associated protein 1), recombinant (Q14145 whole entry): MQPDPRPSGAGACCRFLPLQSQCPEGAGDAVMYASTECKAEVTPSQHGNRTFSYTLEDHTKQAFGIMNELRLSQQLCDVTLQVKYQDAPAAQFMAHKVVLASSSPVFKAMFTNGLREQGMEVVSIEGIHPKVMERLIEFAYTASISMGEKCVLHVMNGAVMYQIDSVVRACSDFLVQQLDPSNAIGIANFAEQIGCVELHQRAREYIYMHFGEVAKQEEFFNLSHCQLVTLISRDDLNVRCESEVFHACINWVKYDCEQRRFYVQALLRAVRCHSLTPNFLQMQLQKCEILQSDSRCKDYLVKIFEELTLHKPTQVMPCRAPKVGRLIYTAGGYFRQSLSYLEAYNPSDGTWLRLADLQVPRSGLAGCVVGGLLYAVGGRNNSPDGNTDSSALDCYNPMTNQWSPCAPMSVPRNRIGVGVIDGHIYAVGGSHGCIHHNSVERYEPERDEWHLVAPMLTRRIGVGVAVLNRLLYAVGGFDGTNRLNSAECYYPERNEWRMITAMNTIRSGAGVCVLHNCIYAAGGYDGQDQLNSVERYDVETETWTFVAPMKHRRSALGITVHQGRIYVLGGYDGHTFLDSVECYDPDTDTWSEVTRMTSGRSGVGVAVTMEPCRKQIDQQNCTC

B1: BDNF mature recombinant (brain-derived neurotrophic factor) (ligand, human, UniProt P23560 129-247, looked up)
chain: HSDPARRGELSVCDSISEWVTAADKKTAVDMSGGTVTVLEKVPVSKGQLKQYFYETKCNPMGYTKEGCRGIDKRHWNSQCRTTQSYVRALTMDSKKRIGWRFIRIDTSCVCTLTIKRGR
- Kd: 2.71 nM
- koff: 0.00225 s⁻¹
- kon: 828000 M⁻¹ s⁻¹
